# According to patent US20080227085A1, “Methods and Systems for the Identification of Rna Regulatory Sequences and Compounds that Modulate their Function” (priority 2003, published 2008):
# B1: domain III: domain III RNA fragment of the HCV-IRES UTR (SEQ ID NO: 26), minimal RNA element required for efficient translation inhibition (nucleic acid)
# chain: GGCCCCCCCCUCCCGGGAGAGCCAUAGUGGUCUGCGGAACCGGUGAGUACACCGGAAUUACCGGAAAGACUGGGUCCUUUCUUGGAUAAACCCACUCUAUGUCCGGUCAUUUGGGCGUGCCCCCGCAAGACUGCUAGCCGAGUAGCGUUGGGUUGCGAAAGGCCUUGUGGUACUGCCUGAUAGGGUGCUUGCGAGUGCCCCGGGAGGUCUCGUA
# modifications: Hepatitis C virus; domain III of HCV-UTR RNA
# Test system: general translation (reporter mRNA encoding firefly luciferase)
# Assay: Inhibition of reporter mRNA translation by HCV-IRES RNA fragments in in vitro translation system (RRL, firefly luciferase)
# Format: biochemical, rabbit
# Conditions: RNA fragments preincubated with in vitro translation system before Fy Luc reporter mRNA; FIG. 3
# Protocol: FIG. 3. […] An in vitro translation system was preincubated with the RNA fragments before addition of the reporter mRNA construct encoding firefly luciferase (Fy Luc). The inhibitory effects of each of the fragments on general translation were determined by monitoring luciferase activity upon addition of substrate. […] Domain I not analyzed due to lack of any predicted secondary structure.
# The plasmid pGEM3-HCV2b-IRES contains sequence coding for nucleotides 18 to 356 (SEQ ID NO: 1) of HCV-IRES RNA (genotype 2b) inserted at the BamHI restriction endonuclease site of the cloning vector pGEM-3 (Promega Corp., Madison, Wis.; FIG. 2A). RNA secondary structure prediction algorithms, as well as biochemical and genetic data, support a representation of this sequence as shown in FIG. 2B. […]
# Translation reactions were performed in vitro to determine the inhibitory effect of HCV IRESIII RNA and fragments thereof and contained (20 μl): 4 μl pre-treated RRL, 4 μl 5× Reaction Buffer A, 5 μl of HCV IRES RNA (1 μM in 20% B), 5 μl mRNA ([…]), and 2 μl 10% DMSO. […] Translation reaction was stopped and Luciferase activity was measured using ViewLux™ (Perkin-Elmer Scientific Instruments, Boston, Mass.; detector set at 10 sec measurement and 6× binning; FIG. 3) upon the addition of 50 μl LucLite-Plus™ luciferase assay reagent (Promega Corp., Madison, Wis.). […]
molecule,measurement,value
B1,inhibition of translation of the reporter (luciferase activity),majority of inhibitory activity resides in domain III
